Test results taken from patent US20260056186A1 (JIANGSU HENGRUI PHARMACEUTICALS, published 2026).
Like-named read-outs stand apart in the source and are kept apart here.

How the values were obtained:
[1] = target: T1, recombinant human APRIL (R&D cat: 5860-AP-010/CF) (human, UniProt O75888 105-250, limits assumed); experiment: cell-based or functional assay
T1 sequence (looked up): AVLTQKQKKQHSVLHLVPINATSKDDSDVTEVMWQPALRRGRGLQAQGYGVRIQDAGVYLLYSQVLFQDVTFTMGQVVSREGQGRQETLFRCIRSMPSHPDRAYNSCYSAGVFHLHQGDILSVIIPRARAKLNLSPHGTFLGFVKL

[2] = target: recombinant human BAFF (R&D cat: 7537-BF-025/CF) (human, UniProt Q9Y275 134-285); experiment: cell-based or functional assay
[3] = target: T1, recombinant human APRIL (R&D cat: …); experiment: cell-based or functional assay; remark: listed apart in the source
[4] = target: T2, BAFF (PeproTech, Cat: 310-13) (UniProt Q9Y275 134-285); experiment: ELISA, BAFF coated at 1 ug/mL, anti-human Fc-HRP, OD450
Procedure: (§1) The capabilities of TACI-BCMA fusion proteins (B575701, B575702, B575703, and B575704) to bind to BAFF and APRIL were assessed by ELISA as follows: BAFF (PeproTech, Cat: 310-13) or ARPIL (Acro Biosystems, Cat: APL-H52D1) was diluted to 1 μg/mL with PBS, and a 96-well plate (Costar, Cat: 3590) was coated with the dilution overnight at 4° C. The plate was washed with PBST and blocked with Blocking Buffer (PBST containing 1% BSA) at 37° C. for 1 h. The plate was tapped. The test antibodies were diluted with Blocking Buffer. Incubation was performed at 37° C. for 1.5 h. The plate was washed with PBST. An HRP-mouse anti-human Fc antibody (GenScript, Cat: A01854-200) was diluted with Blocking Buffer. Incubation was performed at 37° C. for 40 min. The plate was washed with PBST. 100 μL of TMB substrate solution (Biopanda, Cat: TMB-S-003) was added, and color development was performed at 37° C. for 3 min. 100 μL of ELISA stop solution (Solarbio, Cat: C1058) was added. OD450 was measured.
The capability of B575702 to bind to BAFF was consistent with that of B575704, and their EC₅₀ values decreased to ¼ of that of telitacicept. The capability of B575701 to bind to BAFF was consistent with that of B575703, and their EC₅₀ values decreased to ½ of that of telitacicept.

[5] = target: T2, BAFF (PeproTech, Cat: 310-13); experiment: as above; remark: listed apart in the source
Procedure: as §1, with “B613301, B613302, and B613303, which are” for “TACI-BCMA”, “of anifrolumab” for “(B575701, B575702, B575703,”, “TACI-BCMA,” for “B575704)”, “follows: [0548]” for “follows:”

[6] = target: T2, BAFF (PeproTech, Cat: 310-13); experiment: as above; remark: listed apart in the source
Procedure: as §1, with “B613301, B613302, and B613303, which are” for “TACI-BCMA”, “of anifrolumab” for “(B575701, B575702, B575703,”, “TACI-BCMA,” for “B575704)”, “follows: [0548]” for “follows:”

[7] = target: T2, BAFF (PeproTech, Cat: 310-13); experiment: as above; remark: listed apart in the source
Procedure: The capabilities of fusion proteins B606401, B637302, B746201, and B805201 to bind to BAFF and APRIL were assessed by ELISA as follows:
as §1, with “BAFF” for “The capabilities of TACI-BCMA fusion proteins (B575701, B575702, B575703, and B575704) to bind to BAFF and APRIL were assessed by ELISA as follows: BAFF”, “plate” for “plate (Costar, Cat: 3590)”

[8] = target: T3, APRIL (Acro Biosystems, Cat: APL-H52D1) (UniProt O75888 115-250, limits assumed); experiment: ELISA, APRIL coated at 1 ug/mL, anti-human Fc-HRP, OD450
T3 construct: also called ARPIL
T3 sequence (looked up): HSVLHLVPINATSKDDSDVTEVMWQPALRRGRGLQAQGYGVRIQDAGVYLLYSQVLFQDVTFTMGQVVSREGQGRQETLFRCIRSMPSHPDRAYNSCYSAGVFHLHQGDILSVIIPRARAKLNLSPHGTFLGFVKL
Procedure: as §1, with “B613301, B613302, and B613303, which are” for “TACI-BCMA”, “of anifrolumab” for “(B575701, B575702, B575703,”, “TACI-BCMA,” for “B575704)”, “follows: [0548]” for “follows:”

- Flow cytometry proliferating B cell proportion (%), mean value, APRIL-induced, drug at 4.12 nM (IgG1: 55.30) [1]: 48.1%
- Flow cytometry proliferating B cell proportion (%), mean value, APRIL-induced, drug at 12.35 nM (IgG1: 54.80) [1]: 49.2%
- Flow cytometry proliferating B cell proportion (%), mean value, APRIL-induced, drug at 37.04 nM (IgG1: 56.63) [1]: 50.1%
- Flow cytometry proliferating B cell proportion (%), mean value, APRIL-induced, drug at 111.11 nM (IgG1: 55.83) [1]: 50.3%
- Flow cytometry proliferating B cell proportion (%), mean value, APRIL-induced, drug at 333.33 nM (IgG1: 56.27) [1]: 49.1%
- Flow cytometry proliferating B cell proportion (%), mean value, APRIL-induced, drug at 1000.00 nM (IgG1: 53.27) [1]: 46.3%
- CD27+ CD38+ plasma cell count, mean value, BAFF + APRIL-induced (both ligands together), drug at 100 nM (IgG1: 2496) [2]: 510 cells
- CD27+ CD38+ plasma cell count, mean value, BAFF + APRIL-induced (both ligands together), drug at 1000 nM (IgG1: 2279) [2]: 230 cells
- CD27+ CD38+ plasma cell count, mean value, BAFF + APRIL-induced (both ligands together), drug at 10 nM (IgG1: 2687) [3]: 2450 cells
- CD27+ CD38+ plasma cell count, mean value, BAFF + APRIL-induced (both ligands together), drug at 100 nM (IgG1: 2496) [3]: 510 cells
- CD27+ CD38+ plasma cell count, mean value, BAFF + APRIL-induced (both ligands together), drug at 1000 nM (IgG1: 2279) [3]: 230 cells
- EC50 [4]: 0.713 nM
- Emax [4]: 2.28 nM (as printed)
- EC50 [5]: 0.801 nM
- EC50 [6]: 0.801 nM
- EC50 [7]: 0.256 nM
- EC50 [8]: 1.25 nM
- Emax [8]: 2.5
B1: Telitacicept (RCT-18) (Fc fusion)
chain: SRVDQEERFPQGLWTGVAMRSCPEEQYWDPLLGTCMSCKTICNHQSQRTCAAFCRSLSCRKEQGKFYDHLLRDCISCASICGQHPKQCAYFCENKLRSPVNLPPELDKTHTCPPCPAPEAEGAPSVFLFPPKPKDTLMISRTPEVTCVVVDVSHEDPEVKFNWYVDGVEVHNAKTKPREEQYNSTYRVVSVLTVLHQDWLNGKEYKCKVSNKALPSSIEKTISKAKGQPREPQVYTLPPSRDELTKNQVSLTCLVKGFYPSDIAVEWESNGQPENNYKTTPPVLDSDGSFFLYSKLTVDKSRWQQGNVFSCSVMHEALHNHYTQKSLSLSPGK
notes: Positive control TACI-Fc; also called RC18
